Experimental data taken from patent US20170158747A1 (Novartis, published 2017).

Key:
Assay in all cases: cell-based or functional assay
[1] = target: T1, human IL10 receptor (IL10R1/R2 receptor complex) on human whole blood cells (human, UniProt Q13651 22-578; Q08334 20-325)
T1 sequence (looked up) 1: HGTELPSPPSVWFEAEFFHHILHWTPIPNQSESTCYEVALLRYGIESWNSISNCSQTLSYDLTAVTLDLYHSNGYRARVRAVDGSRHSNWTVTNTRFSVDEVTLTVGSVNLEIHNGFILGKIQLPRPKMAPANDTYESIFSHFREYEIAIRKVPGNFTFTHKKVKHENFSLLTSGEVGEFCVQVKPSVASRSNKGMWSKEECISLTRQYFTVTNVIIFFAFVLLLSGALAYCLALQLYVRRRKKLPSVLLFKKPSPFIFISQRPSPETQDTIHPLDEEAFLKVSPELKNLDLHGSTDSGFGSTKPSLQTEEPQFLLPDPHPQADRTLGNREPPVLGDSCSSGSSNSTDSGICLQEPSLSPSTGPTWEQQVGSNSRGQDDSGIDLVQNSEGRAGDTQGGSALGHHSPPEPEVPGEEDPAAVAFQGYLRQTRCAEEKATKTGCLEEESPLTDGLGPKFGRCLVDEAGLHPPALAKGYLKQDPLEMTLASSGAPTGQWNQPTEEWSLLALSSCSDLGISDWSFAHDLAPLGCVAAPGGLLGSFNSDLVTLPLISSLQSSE
T1 sequence (looked up) 2: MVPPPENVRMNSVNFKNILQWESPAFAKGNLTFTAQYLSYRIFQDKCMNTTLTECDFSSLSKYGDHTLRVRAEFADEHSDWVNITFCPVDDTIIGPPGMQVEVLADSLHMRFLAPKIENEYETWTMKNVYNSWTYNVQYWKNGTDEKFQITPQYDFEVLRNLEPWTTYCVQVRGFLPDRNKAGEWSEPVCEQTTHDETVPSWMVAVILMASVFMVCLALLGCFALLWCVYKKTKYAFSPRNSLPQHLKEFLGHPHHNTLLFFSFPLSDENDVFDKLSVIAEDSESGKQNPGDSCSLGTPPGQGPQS

[2] = target: T2, mouse IL10 receptor on mouse cells (whole blood, colon) (mouse, UniProt Q61727 17-575; Q61190 20-349)
T2 sequence (looked up) 1: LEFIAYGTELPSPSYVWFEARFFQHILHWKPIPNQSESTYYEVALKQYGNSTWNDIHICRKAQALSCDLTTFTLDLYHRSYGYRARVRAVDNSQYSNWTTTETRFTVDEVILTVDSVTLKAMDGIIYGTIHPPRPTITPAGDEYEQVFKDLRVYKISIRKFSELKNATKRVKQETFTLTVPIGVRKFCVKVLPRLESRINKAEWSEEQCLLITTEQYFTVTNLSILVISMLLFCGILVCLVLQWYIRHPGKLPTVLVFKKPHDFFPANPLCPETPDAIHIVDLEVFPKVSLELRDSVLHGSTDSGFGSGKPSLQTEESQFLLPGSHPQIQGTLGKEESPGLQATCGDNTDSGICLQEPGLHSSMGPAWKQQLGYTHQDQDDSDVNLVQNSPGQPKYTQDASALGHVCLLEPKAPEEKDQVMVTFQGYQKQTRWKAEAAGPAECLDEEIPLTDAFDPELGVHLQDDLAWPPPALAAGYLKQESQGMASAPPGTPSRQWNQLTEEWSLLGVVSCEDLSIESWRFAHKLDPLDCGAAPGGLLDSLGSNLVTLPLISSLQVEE
T2 sequence (looked up) 2: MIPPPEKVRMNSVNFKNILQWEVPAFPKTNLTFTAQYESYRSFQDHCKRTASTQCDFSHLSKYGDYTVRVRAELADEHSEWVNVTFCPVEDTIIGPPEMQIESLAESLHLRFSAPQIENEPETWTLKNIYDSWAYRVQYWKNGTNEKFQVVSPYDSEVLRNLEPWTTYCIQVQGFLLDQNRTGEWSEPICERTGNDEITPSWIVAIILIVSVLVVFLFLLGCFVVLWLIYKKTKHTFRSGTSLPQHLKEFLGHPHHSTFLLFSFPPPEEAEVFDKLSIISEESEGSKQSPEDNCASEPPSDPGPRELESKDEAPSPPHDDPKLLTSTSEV

[3] = target: T3, cynomolgus monkey IL10 receptor on cynomolgus whole blood cells (cynomolgus monkey, UniProt A0A2K5WJ66 22-576; A0A7N9D6W2 20-323)
T3 sequence 1: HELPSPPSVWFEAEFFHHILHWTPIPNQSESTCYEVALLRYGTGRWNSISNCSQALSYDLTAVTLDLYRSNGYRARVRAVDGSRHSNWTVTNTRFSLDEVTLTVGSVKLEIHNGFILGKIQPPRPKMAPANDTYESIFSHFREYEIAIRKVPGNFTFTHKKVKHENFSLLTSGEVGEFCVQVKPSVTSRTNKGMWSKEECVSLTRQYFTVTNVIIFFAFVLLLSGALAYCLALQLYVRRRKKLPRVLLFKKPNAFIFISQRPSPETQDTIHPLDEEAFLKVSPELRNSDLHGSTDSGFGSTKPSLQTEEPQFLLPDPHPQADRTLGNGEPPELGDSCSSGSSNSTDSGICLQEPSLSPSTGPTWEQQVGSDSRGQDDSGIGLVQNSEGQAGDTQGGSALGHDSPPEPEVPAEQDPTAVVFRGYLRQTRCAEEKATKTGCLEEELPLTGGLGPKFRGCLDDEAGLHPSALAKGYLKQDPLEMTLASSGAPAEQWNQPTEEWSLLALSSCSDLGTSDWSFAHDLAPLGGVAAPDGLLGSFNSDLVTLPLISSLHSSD
T3 sequence 2: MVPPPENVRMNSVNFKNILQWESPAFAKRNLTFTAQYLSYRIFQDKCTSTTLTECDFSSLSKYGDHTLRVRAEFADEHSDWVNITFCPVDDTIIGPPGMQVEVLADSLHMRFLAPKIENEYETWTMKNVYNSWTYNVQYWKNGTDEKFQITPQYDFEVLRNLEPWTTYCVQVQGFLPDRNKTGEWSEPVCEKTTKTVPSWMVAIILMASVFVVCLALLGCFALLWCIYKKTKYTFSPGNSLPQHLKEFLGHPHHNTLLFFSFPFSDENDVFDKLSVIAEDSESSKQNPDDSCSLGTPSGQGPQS

B1: IgGIL10M13 (antibody)
heavy: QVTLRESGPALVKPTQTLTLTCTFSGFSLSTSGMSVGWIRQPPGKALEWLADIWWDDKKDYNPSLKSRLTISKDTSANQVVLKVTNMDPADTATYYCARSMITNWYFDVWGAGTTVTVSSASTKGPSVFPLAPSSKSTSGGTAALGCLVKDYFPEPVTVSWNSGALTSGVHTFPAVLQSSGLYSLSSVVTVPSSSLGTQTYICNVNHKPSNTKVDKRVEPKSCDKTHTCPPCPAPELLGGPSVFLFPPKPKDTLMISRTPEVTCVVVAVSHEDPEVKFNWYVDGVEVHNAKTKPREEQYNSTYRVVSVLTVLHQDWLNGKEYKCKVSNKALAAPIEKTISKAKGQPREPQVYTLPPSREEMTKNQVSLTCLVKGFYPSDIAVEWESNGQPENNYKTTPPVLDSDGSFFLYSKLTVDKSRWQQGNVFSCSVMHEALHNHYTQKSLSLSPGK
light: DIQMTQSPSTLSASVGDRVTITCKAQLSSPGQGTQSENSCTHFPGNLPNMLRDLRDAFSRVKTFFQMKDQLDNLLLKESLLEDFKGYLGCQALSEMIQFYLEEVMPQAENQDPDIKAHVNSLGENLKTLRLRLRRCHRFLPCENGGGSGGKSKAVEQVKNAFNKLQEKGIYKAMSEFDIFINYIEAYMTMKIRNVGYMHWYQQKPGKAPKLLIYDTSKLASGVPSRFSGSGSGTAFTLTISSLQPDDFATYYCFQGSGYPFTFGGGTKLEIKRTVAAPSVFIFPPSDEQLKSGTASVVCLLNNFYPREAKVQWKVDNALQSGNSQESVTEQDSKDSTYSLSSTLTLSKADYEKHKVYACEVTHQGLSSPVTKSFNRGEC
[1]
  IC50, inhibition of LPS-induced TNFα production, ex vivo human whole blood: 0.0252 nM
[2]
  IC50, inhibition of LPS-induced TNFα production, ex vivo mouse whole blood: 0.012 nM
[3]
  IC50, inhibition of LPS-induced TNFα production, ex vivo cynomolgus whole blood: 0.00667 nM
